Test results taken from publication PMC5670239 (2017).

T1: ARS2 763-871 (Homo sapiens, UniProt Q9BXP5)
T1 chain: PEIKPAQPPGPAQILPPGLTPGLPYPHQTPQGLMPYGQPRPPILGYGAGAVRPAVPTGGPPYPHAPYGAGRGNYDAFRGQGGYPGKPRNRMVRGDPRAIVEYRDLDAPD

T2: NELF-E 244-380 (Homo sapiens, UniProt P18615)
T2 chain: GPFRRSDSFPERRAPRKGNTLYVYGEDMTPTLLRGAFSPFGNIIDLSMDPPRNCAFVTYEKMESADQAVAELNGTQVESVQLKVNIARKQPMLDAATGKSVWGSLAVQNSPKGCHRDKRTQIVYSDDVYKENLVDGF

T3: ARS2 845-871 (Homo sapiens, UniProt Q9BXP5, m7GTP)
T3 chain: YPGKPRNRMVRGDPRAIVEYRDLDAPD

T4: NELF-E 360-380 (Homo sapiens, UniProt P18615, m7GTP)
T4 chain: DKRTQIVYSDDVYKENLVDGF

T5: PHAX 103-308 (Homo sapiens, UniProt Q9H814)
T5 chain: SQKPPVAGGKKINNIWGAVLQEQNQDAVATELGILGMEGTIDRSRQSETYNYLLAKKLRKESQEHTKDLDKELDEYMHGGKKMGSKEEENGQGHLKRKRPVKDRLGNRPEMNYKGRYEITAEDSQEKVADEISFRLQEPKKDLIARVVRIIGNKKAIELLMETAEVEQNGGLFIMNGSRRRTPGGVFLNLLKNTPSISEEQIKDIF

T6: ARS2 827-871 (Homo sapiens, UniProt Q9BXP5, m7GTP)
T6 chain: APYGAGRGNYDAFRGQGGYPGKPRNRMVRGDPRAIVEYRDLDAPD


Key:
Assay in all cases: ITC
ARS2 763-871 = target: T1, ARS2 763-871
NELF-E 244-380 = target: T2, NELF-E 244-380
ARS2 845-871 = target: T3, ARS2 845-871
NELF-E 360-380 = target: T4, NELF-E 360-380
PHAX 103-308 = target: T5, PHAX 103-308
ARS2 827-871 = target: T6, ARS2 827-871
PHAX = PHAX (Homo sapiens, UniProt Q9H814)
Sequence of PHAX (Q9H814 2-394): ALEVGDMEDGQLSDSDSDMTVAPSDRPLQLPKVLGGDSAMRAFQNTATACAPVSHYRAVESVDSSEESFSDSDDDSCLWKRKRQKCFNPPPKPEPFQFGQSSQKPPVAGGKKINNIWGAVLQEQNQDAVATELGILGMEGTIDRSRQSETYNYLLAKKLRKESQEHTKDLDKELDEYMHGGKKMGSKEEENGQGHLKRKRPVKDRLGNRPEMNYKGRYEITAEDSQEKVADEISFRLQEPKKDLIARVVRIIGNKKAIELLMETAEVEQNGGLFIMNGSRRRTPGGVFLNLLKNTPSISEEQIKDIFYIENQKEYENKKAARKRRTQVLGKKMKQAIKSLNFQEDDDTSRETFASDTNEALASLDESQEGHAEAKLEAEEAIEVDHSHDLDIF

| Binder | Kd (ARS2 763-871) | Kd (NELF-E 244-380) | Kd (ARS2 845-871) | Kd (NELF-E 360-380) | Kd (PHAX 103-308) | Kd (ARS2 827-871) | Kd (PHAX) |
| --- | --- | --- | --- | --- | --- | --- | --- |
| CBC (protein, m7GTP) chain 1: MSRRRHSDENDGGQPHKRRKTSDANETEDHLESLICKVGEKSACSLESNLEGLAGVLEADLPNYKSKILRLLCTVARLLPEKLTIYTTLVGLLNARNYNFGGEFVEAMIRQLKESLKANNYNEAVYLVRFLSDLVNCHVIAAPSMVAMFENFVSVTQEEDVPQVRRDWYVYAFLSSLPWVGKELYEKKDAEMDRIFANTESYLKRRQKTHVPMLQVWTADKPHPQEEYLDCLWAQIQKLKKDRWQERHILRPYLAFDSILCEALQHNLPPFTPPPHTEDSVYPMPRVIFRMFDYTDDPEGPVMPGSHSVERFVIEENLHCIIKSHWKERKTCAAQLVSYPGKNKIPLNYHIVEVIFAELFQLPAPPHIDVMYTTLLIELCKLQPGSLPQVLAQATEMLYMRLDTMNTTCVDRFINWFSHHLSNFQFRWSWEDWSDCLSQDPESPKPKFVREVLEKCMRLSYHQRILDIVPPTFSALCPANPTCIYKYGDESSNSLPGHSVALCLAVAFKSKATNDEIFSILKDVPNPNQDDDDDEGFSFNPLKIEVFVQTLLHLAAKSFSHSFSALAKFHEVFKTLAESDEGKLHVLRVMFEVWRNHPQMIAVLVDKMIRTQIVDCAAVANWIFSSELSRDFTRLFVWEILHSTIRKMNKHVLKIQKELEEAKEKLARQHKRRSDDDDRSSDRKDGVLEEQIERLQEKVESAQSEQKNLFLVIFQRFIMILTEHLVRCETDGTSVLTPWYKNCIERLQQIFLQHHQIIQQYMVTLENLLFTAELDPHILAVFQQFCALQA chain 2: SGGLLKALRSDSYVELSQYRDQHFRGDNEEQEKLLKKSCTLYVGNLSFYTTEEQIYELFSKSGDIKKIIMGLDKMKKTACGFCFVEYYSRADAENAMRYINGTRLDDRIIRTDWDAGFKEGRQYGRGRSGGQVRDEYRQDYDAGRGGYGKLAQNQ | 1000 nM | ~50 nM | – | – | – | – | – |
| CBC (protein) chain 1: MSRRRHSDENDGGQPHKRRKTSDANETEDHLESLICKVGEKSACSLESNLEGLAGVLEADLPNYKSKILRLLCTVARLLPEKLTIYTTLVGLLNARNYNFGGEFVEAMIRQLKESLKANNYNEAVYLVRFLSDLVNCHVIAAPSMVAMFENFVSVTQEEDVPQVRRDWYVYAFLSSLPWVGKELYEKKDAEMDRIFANTESYLKRRQKTHVPMLQVWTADKPHPQEEYLDCLWAQIQKLKKDRWQERHILRPYLAFDSILCEALQHNLPPFTPPPHTEDSVYPMPRVIFRMFDYTDDPEGPVMPGSHSVERFVIEENLHCIIKSHWKERKTCAAQLVSYPGKNKIPLNYHIVEVIFAELFQLPAPPHIDVMYTTLLIELCKLQPGSLPQVLAQATEMLYMRLDTMNTTCVDRFINWFSHHLSNFQFRWSWEDWSDCLSQDPESPKPKFVREVLEKCMRLSYHQRILDIVPPTFSALCPANPTCIYKYGDESSNSLPGHSVALCLAVAFKSKATNDEIFSILKDVPNPNQDDDDDEGFSFNPLKIEVFVQTLLHLAAKSFSHSFSALAKFHEVFKTLAESDEGKLHVLRVMFEVWRNHPQMIAVLVDKMIRTQIVDCAAVANWIFSSELSRDFTRLFVWEILHSTIRKMNKHVLKIQKELEEAKEKLARQHKRRSDDDDRSSDRKDGVLEEQIERLQEKVESAQSEQKNLFLVIFQRFIMILTEHLVRCETDGTSVLTPWYKNCIERLQQIFLQHHQIIQQYMVTLENLLFTAELDPHILAVFQQFCALQA chain 2: SGGLLKALRSDSYVELSQYRDQHFRGDNEEQEKLLKKSCTLYVGNLSFYTTEEQIYELFSKSGDIKKIIMGLDKMKKTACGFCFVEYYSRADAENAMRYINGTRLDDRIIRTDWDAGFKEGRQYGRGRSGGQVRDEYRQDYDAGRGGYGKLAQNQ | – | ~400 nM | 1100 nM | ~3300 nM | 600 nM | 1000 nM | 300 nM |
